Laboratory results from patent US20250186594A1 (BRIGHT PEAK THERAPEUTICS, published 2025).
Numbering of substitutions follows the chain as printed. Names may count otherwise.

Target: T1, IL-18 receptor (IL-18R) on HEK-Blue IL18R reporter cells (UniProt Q13478 19-541; O95256 20-599, limits assumed)
T1 sequence (looked up) 1: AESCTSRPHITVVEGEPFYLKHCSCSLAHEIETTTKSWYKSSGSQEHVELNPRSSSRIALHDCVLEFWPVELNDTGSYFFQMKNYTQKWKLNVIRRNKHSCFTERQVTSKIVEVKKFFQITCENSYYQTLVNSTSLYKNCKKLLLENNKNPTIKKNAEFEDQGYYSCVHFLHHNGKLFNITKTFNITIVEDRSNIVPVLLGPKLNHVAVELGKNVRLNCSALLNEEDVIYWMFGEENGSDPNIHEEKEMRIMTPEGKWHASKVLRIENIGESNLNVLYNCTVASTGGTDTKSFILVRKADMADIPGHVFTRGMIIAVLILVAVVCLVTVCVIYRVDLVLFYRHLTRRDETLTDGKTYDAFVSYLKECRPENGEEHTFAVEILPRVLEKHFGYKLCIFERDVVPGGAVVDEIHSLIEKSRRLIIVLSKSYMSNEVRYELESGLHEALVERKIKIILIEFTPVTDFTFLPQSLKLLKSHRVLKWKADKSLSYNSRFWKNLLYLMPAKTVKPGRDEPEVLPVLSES
T1 sequence (looked up) 2: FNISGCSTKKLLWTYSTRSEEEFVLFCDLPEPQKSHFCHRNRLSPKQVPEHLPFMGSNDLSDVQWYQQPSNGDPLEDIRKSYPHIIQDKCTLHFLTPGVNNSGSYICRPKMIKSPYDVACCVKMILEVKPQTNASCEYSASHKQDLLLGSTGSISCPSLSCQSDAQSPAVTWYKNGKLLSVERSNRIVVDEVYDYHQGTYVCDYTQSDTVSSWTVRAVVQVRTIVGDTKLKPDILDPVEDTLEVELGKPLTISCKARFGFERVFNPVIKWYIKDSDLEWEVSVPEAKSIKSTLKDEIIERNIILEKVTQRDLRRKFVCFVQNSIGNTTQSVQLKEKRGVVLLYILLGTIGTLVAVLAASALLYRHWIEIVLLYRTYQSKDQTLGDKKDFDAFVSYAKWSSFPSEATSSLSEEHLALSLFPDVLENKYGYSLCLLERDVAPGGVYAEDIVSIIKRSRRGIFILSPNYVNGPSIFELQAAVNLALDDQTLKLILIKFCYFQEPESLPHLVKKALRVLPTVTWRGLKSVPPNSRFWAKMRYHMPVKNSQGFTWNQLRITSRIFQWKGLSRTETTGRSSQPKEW
Assay: cell-based or functional assay

B1: IL-18 variant SEQ ID NO: 219 (V11I, C38A, K53A, C76A, G108A, C127A) (ligand)
chain: YFGKLESKLSIIRNLNDQVLFIDQGNRPLFEDMTDSDARDNAPRTIFIISMYADSQPRGMAVTISVKCEKISTLSAENKIISFKEMNPPDNIKDTKSDIIFFQRSVPAHDNKMQFESSSYEGYFLAAEKERDLFKLILKKEDELGDRSIMFTVQNED
EC50, HEK-Blue IL18R reporter: 15.6 nM

B2: IL-18 variant SEQ ID NO: 235 (E6K, K8E, V11I, C38A, K53A, T63A, C76A, Q103R, C127A) (ligand)
chain: B1 chain with E6K, K8E, T63A, Q103R, A108G
EC50, HEK-Blue IL18R reporter: 0.4 nM

B3: IL-18 variant SEQ ID NO: 237 (E6K, V11I, C38A, K53A, T63A, C76A, C127A, V153E) (ligand)
chain: B1 chain with E6K, T63A, A108G, V153E
EC50, HEK-Blue IL18R reporter: 0.1 nM

B4: IL-18 variant SEQ ID NO: 224 (V11I, C38A, C76A, Q103K, C127A) (ligand)
chain: B1 chain with A53K, Q103K, A108G
EC50, HEK-Blue IL18R reporter: 1.5 nM

B5: IL-18 variant SEQ ID NO: 227 (V11I, C38A, S55T, C76A, C127A) (ligand)
chain: B1 chain with A53K, S55T, A108G
EC50, HEK-Blue IL18R reporter: 4.73 nM

B6: IL-18 variant SEQ ID NO: 226 (V11I, C38A, S55R, C76A, C127A) (ligand)
chain: B1 chain with A53K, S55R, A108G
EC50, HEK-Blue IL18R reporter: 1.91 nM

B7: IL-18 variant SEQ ID NO: 234 (E6K, V11I, C38A, K53A, T63A, C76A, Q103R, C127A) (ligand)
chain: B1 chain with E6K, T63A, Q103R, A108G
EC50, HEK-Blue IL18R reporter: 0.26 nM

B8: IL-18 variant SEQ ID NO: 229 (V11I, C38A, C76A, S105K, C127A) (ligand)
chain: B1 chain with A53K, S105K, A108G
EC50, HEK-Blue IL18R reporter: 7.73 nM

B9: IL-18 variant SEQ ID NO: 232 (E6K, V11I, C38A, I49M, K53A, T63A, C76A, C127A) (ligand)
chain: B1 chain with E6K, I49M, T63A, A108G
EC50, HEK-Blue IL18R reporter: 0.07 nM

B10: IL-18 variant SEQ ID NO: 222 (K8R, V11I, C38A, C76A, Q103E, C127A) (ligand)
chain: B1 chain with K8R, A53K, Q103E, A108G
EC50, HEK-Blue IL18R reporter: 2.01 nM

B11: IL-18 variant SEQ ID NO: 223 (K8E, V11I, C38A, C76A, Q103R, C127A) (ligand)
chain: B1 chain with K8E, A53K, Q103R, A108G
EC50, HEK-Blue IL18R reporter: 2.3 nM

B12: IL-18 variant SEQ ID NO: 230 (K8L, E6K, V11I, C38A, K53A, T63A, C76A, C127A) (ligand)
chain: B1 chain with E6K, K8L, T63A, A108G
EC50, HEK-Blue IL18R reporter: 0.29 nM

B13: IL-18 variant SEQ ID NO: 220 (V11I, C38A, K53A, C76A, H109A, C127A) (ligand)
chain: B1 chain with A108G, H109A
EC50, HEK-Blue IL18R reporter: 19.5 nM

B14: IL-18 variant SEQ ID NO: 238 (E6K, V11I, C38A, K53A, T63A, C76A, C127A, V153Y) (ligand)
chain: B1 chain with E6K, T63A, A108G, V153Y
EC50, HEK-Blue IL18R reporter: 0.08 nM

B15: IL-18 variant SEQ ID NO: 228 (V11I, C38A, C76A, S105I, C127A) (ligand)
chain: B1 chain with A53K, S105I, A108G
EC50, HEK-Blue IL18R reporter: 5.37 nM

B16: IL-18 variant SEQ ID NO: 233 (E6K, V11I, C38A, I49R, K53A, T63A, C76A, C127A) (ligand)
chain: B1 chain with E6K, I49R, T63A, A108G
EC50, HEK-Blue IL18R reporter: 0.04 nM

B17: IL-18 variant SEQ ID NO: 221 (V11I, C38A, K53A, C76A, D110A, C127A) (ligand)
chain: B1 chain with A108G, D110A
EC50, HEK-Blue IL18R reporter: 2.02 nM

B18: IL-18 variant SEQ ID NO: 225 (V11I, C38A, S55H, C76A, C127A) (ligand)
chain: B1 chain with A53K, S55H, A108G
EC50, HEK-Blue IL18R reporter: 3.14 nM
